# Results taken from publication PMC3464233, “Structural Basis of Differential Neutralization of DENV-1 Genotypes by an Antibody that Recognizes a Cryptic Epitope” (PLoS Pathogens, 2012).
# T1: DENV-1 strain Western Pacific-74 E protein domain III (residues 293-399) (Dengue virus 1, strain Nauru/Western …, strain)
# T1 chain: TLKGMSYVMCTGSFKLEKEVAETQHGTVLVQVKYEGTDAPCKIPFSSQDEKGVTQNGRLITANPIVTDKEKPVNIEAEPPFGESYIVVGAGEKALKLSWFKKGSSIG
# T2: DENV-1 strain 16007 E protein domain III (residues 293-399) (Dengue virus 1, strain 16007 (genotype …, strain))
# T2 construct: Dengue virus 1 strain 16007 (genotype 2), envelope (E) protein domain III, residues 293-399; untagged; also called 16007 DIII; DIII of 16007; source: BL21 bacterial cells (pET21a, autoinduction); inclusion bodies solubilized and oxidatively re-folded
# T2 chain: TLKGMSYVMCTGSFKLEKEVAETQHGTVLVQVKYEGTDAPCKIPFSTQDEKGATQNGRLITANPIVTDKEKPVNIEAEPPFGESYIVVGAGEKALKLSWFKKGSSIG
# B1: DENV1-E111 monoclonal antibody (antibody, V domains shown)
# VH: QVQLLQPGAELVKPGASMKLSCKASGYTFTNWWMHWVRLRPGRGLEWIGRIDPNSDVNKYNEKFENRASLTVDKHSSTAYMQLSSLTSEDSAIYYCARWFFPWYFDVWGTGTTVTVSS
# VL: NIVLTQSPASLAVSLGQRATISCRASESVDHYGNSFIYWYQQKPGQPPKLLIYLASNLESGVPARFSGSGSETDFTLTIDSVETDDAATYYCQQNNEDPYTFGGGTKLEIK
# notes: also called E111 MAb; E111 IgG; source: E111 hybridoma
# B2: E111 single-chain variable fragment (VL at the N-terminus) (scFv, V domains shown)
# VH: QVQLLQPGAELVKPGASMKLSCKASGYTFTNWWMHWVRLRPGRGLEWIGRIDPNSDVNKYNEKFENRASLTVDKHSSTAYMQLSSLTSEDSAIYYCARWFFPWYFDVWGTGTTVTVSS
# VL: NIVLTQSPASLAVSLGQRATISCRASESVDHYGNSFIYWYQQKPGQPPKLLIYLASNLESGVPARFSGSGSETDFTLTIDSVETDDAATYYCQQNNEDPYTFGGGTKLEIK
# notes: E111 VL; as the VL of the light chain of m1; (GGGGS)3 linker; E111 VH; as the VH of the heavy chain of m1; The monomeric species was used for the structure; a second construct with VH first was also made but not used; also called E111 scFv
# Key:
# [1] = molecular target: DENV-1 strain 16007 E protein domain III (residues 293-399) (Dengue virus 1 (strain 16007, genotype 2))
# [2] = molecular target: DENV-1 strain TVP-2130 E protein domain III (Dengue virus 1 (strain TVP-2130, genotype 1))
# [3] = molecular target: DENV-1 strain 16007 E protein domain III (residues 293-399) (Dengue virus 1 (strain 16007, genotype 2)); remark: listed apart in the source
# [4] = molecular target: DENV1-E111 monoclonal antibody; test: SPR; Biacore T100; about 500 RU of E111 MAb or scFv amine-coupled to a Series S CM5 chip; two-fold dilution series of DIII variants injected 180 s, dissociation 1,000 s; 25°C; double referencing against WNV E16 MAb/scFv flow cell; 1:1 Langmuir fit
# [5] = molecular target: DENV1-E111 monoclonal antibody; test: not stated; half-life of binding of 16007 DIII K343I with E111; unpublished results
# [6] = molecular target: DENV-1 strain 3146 SL E protein domain III (Dengue virus 1 (strain 3146 SL, genotype 5))
# [7] = molecular target: DENV-1 strain TVP-5175 E protein domain III (Dengue virus 1 (strain TVP-5175, genotype 3))
# [8] = molecular target: DENV-1 strain 3146 SL E protein domain III (Dengue virus 1 (strain 3146 SL, genotype 5)); remark: listed apart in the source
# [9] = molecular target: DENV-1 West Pac-74 DIII V345A (Dengue virus 1 (strain Western Pacific-74, genotype 4))
# [10] = molecular target: T1, DENV-1 strain Western Pacific-74 E …; test: cell-based or functional assay
# [11] = molecular target: T1, DENV-1 strain Western Pacific-74 E …; test: SPR; Biacore T100; about 500 RU of E111 MAb or scFv amine-coupled to a Series S CM5 chip; two-fold dilution series of DIII variants injected 180 s, dissociation 1,000 s; 25°C; double referencing against WNV E16 MAb/scFv flow cell; 1:1 Langmuir fit; details: both partners purified
# [12] = molecular target: T1, DENV-1 strain Western Pacific-74 E …; test: as above; details: both partners purified
# [13] = molecular target: E111 single-chain variable fragment (VL at the N-terminus); test: SEC; E111 scFv after nickel affinity; two species resolved
# [14] = molecular target: T2, DENV-1 strain 16007 E protein domain …; test: SPR; Biacore T100; about 500 RU of E111 MAb or scFv amine-coupled to a Series S CM5 chip; two-fold dilution series of DIII variants injected 180 s, dissociation 1,000 s; 25°C; double referencing against WNV E16 MAb/scFv flow cell; 1:1 Langmuir fit; details: both partners purified
Molecule,Kd [4] [nM],koff [4] [s⁻¹],kon [4] [M⁻¹ s⁻¹],t1/2 [4] [min],also measured
DENV1-E111 monoclonal antibody,–,–,–,–,"PRNT50, plaque reduction neutralisation of DENV-1 16007 (genotype 2) on Vero cells [1]: 3.8 ng/mL; PRNT50, plaque reduction neutralisation of DENV-1 TVP-2130 (genotype 1) on Vero cells [2]: > 25000 ng/mL; EC50 of neutralisation of 16007 RVP after incubation with E111 at 37°C (1 to 22 h) or 40°C (to 4.5 h); fold increase in potency at 40°C for 4.5 h [3]: 3.5 fold"
DENV-1 16007 DIII A345V (domain or fragment),1140,0.131,114000,0.0883,–
DENV-1 16007 DIII A369T (domain or fragment),25.3,0.00383,151000,3.04,–
DENV-1 16007 DIII D341N (domain or fragment),18.9,0.00402,213000,2.88,–
DENV-1 16007 DIII K310E/T329E/K361T (domain or fragment),39.8,0.00457,121000,2.58,–
DENV-1 16007 DIII K343I (domain or fragment),–,–,–,–,t1/2 [5]: 45 min
DENV-1 16007 DIII L351V (domain or fragment),107,0.0237,211000,0.548,–
DENV-1 16007 DIII T339S (domain or fragment),16.6,0.00313,191000,3.71,–
DENV-1 16007 DIII V380I (domain or fragment),19,0.00236,124000,4.94,–
DENV-1 strain 3146 SL E protein domain III (domain or fragment),523,0.142,267000,0.0917,–
DENV-1 strain 16007 E protein domain III (residues 293-399) (domain or fragment),18,0.00356,198000,3.23,–
DENV-1 strain TVP-5175 E protein domain III (domain or fragment),1980,0.312,162000,0.0367,–
B1,–,–,–,–,"PRNT50, plaque reduction neutralisation of DENV-1 3146 SL (genotype 5) on Vero cells [6]: 21 ng/mL; PRNT50, plaque reduction neutralisation of DENV-1 TVP-5175 (genotype 3) on Vero cells [7]: > 25000 ng/mL; EC50, plaque reduction neutralisation of DENV-1 3146 SL (genotype 5) [8]: 0.022 µg/mL; neutralisation of V345A West Pac-74 RVP against wild-type West Pac-74 RVP, Raji-DC-SIGNR cells, fold enhancement [9]: 3.6 fold; EC50 of neutralisation of West Pac-74 RVP after incubation with E111 at 37°C (1 to 22 h) or 40°C (to 4.5 h); fold reduction at 40°C for 4.5 h [10]: 20 fold; Kd [11]: 415 ± 24 nM; Kd [12]: 416 nM; koff [12]: 0.106 s⁻¹; kon [12]: 256000 M⁻¹ s⁻¹; t1/2 [12]: 0.108 min"
B2,–,–,–,–,stoichiometry N [13]: 2; Kd [14]: 24.6 nM; koff [14]: 0.00695 s⁻¹; kon [14]: 288000 M⁻¹ s⁻¹; t1/2 [14]: 1.68 min; Kd [12]: 1830 nM; koff [12]: 0.275 s⁻¹; kon [12]: 151000 M⁻¹ s⁻¹; t1/2 [12]: 0.0422 min
